Measured values published in a protein production outcome set (Wang et al. 2014).

Test: label from the status in PepcDB records

MCYAASKLWNVCNYERHHYKELGLEKYPDWYYQKKAHKGDLWYRQLPSQTAQETCKQLDKAWKSFYVLKKTGGIKEPNPPRFKQDNIPVTYMQMGIRHEKGSDQLRLSLPRDLKSYMEETYGIHEKFLYLENKIFRNMDHIKQLRIYPPENGTCELIVIYEIEEPEQLSQNGHYLSVDLGLHNLMTCYDSGNGRTFILGRKYLSLERYFHKEIARVQSVWYAQQSERGIKYPKSSKHIQRLYRKKQNAVKDYLHKTTRWIAEYCRKEDIRCVVVGDIRNIRKEKDMGHKTNQKFHGLPYNRLYIMLEYKLKLYGIQLIKQEESYTSQCSPLSPEVSKRHAEASNRKERGMYITDGVRFNADAVGAFNILRKHLSVSGKQKEMSVTGLKTPEIIKVAA
protein production: failed

MNSMKLYIFACLCSLILWGVSCNEESAGIPTGSLFLGIEEDATLLTKAESAVTNESLRVDIIAAEGDTIKSYSDYIDEVKGKKIVLPVGTYTISVKSNQSEEAGWEKPFYSGSKEITIQSGEITSVQIVCKISNTKVAVEYADNLADYFSHYETTVSNTSGSLLYTRDETRAGFFKAEKLTADLKLVNQDGNEFAMQRVFPDIKERYFYKIKYSLDDGGGDNEEAGADFGGIIVDEKADTIYYGIFIKQEDLFGKSVPKLALDGFTENKIVYKKTENPSVPEHSLTIEAPNGIKQLKVETTSFQFADVPSFDLCNLTDAARTRLQQLDFPMQEVKDKQELTFVLTDFAKALEPASVTQMATHTFTFSVLDNLHQETTVQFIYEIRPNVNVTTEEPVVWAKFVTLRGNSIDRDNIGFMLKKKADADFQRYDATIYNEQTGDFSLLLIENIMPGTEYEYYAVSGTDAQGNVKTFTTSPIVNLKNNTFDEWFKNGKTWFPNVDVSKWWDSGNTGANTAGENNPTSPEESVVVKGKAAKLQSTWIGFIGIGAFASASMFTGNFVDIDGTNGILSFGQPFTAKPTKLTGYYKYTPVNIDYMEQWDSKVDPDLKSGDSDQCIIYIALCTKNYEIRTNPKSRQLFDPNDASVIAYGELVAKEAVSGEEANGYKKFSIDIKYRKTDVTPSYIVVVAAASRYGDYFTGGKGSTLYIDEFNLEYDYNAASFTNE
protein production: failed

MVWGTFLKNKKPYSIKRQLTLSVGLLVSALLLISLYFSFQSAKHEVEEVYDARLGQSAKLMLLTLSISTETDTLANHRELFDQWMKNIDSLAKSDEDKATKFGHPYEQNLVFQFYRDNKLIWSSTPNLRSLSSSFYNNGYADITKDGVQWRTFQLSLPQTEHENEYVVVAEKQKIRKEIIHEIALSTSIEQLLLLPTLLLLLFWLIDRYFRPINDLRTAITQRNVHRLDRIHVTDNTTELAPLVEALNSLLSELEQAWQREKRFTRAAAHELKTPLTILRLNVENALESNDPEQLRGDLHNILQGIERTDRLIHQLLTLAKVDSLSERVFDNVELTPLLQTVVADLAPLALRQDQDISLSPAEVALSGDKMLLEVLFRNLVDNAIRYSGAHSEIQVSVQENRNAIKILISDTGPEIPQETRERIFEQFYRGHSEKGDGAGLGMSICKDIATLHSAIIELIPRENGKNTFVVAFPKH
protein production: failed

MSGVLLLFIIGFIGSFISGMVGIGGAIINYPMILYIPVLLGFTGYTSHEVSGITAVQVFFATFAGAWAYRKSTDMNKMLVVYMGASILIGSFIGSFSANLLDEHAVNVVYTVLATIAAMMMFVPKKNNSGAVKYNKWLASVLAFIVGGVSGIIGAGGAFLLVPIMLVILKLPLRMTIATSIAITFISSVGITTGKVITGQVVIIPALIIAVASIFAAPLGARVGKRINQKVLQYMLSILIVGTAVKMWIDMILK
protein production: failed

AHARLQITQFAMDSVGIGIQWIDPDSGRFVYANRHTAELLGYSEQEMLTLTVSDIDPAFPLPAFHATMARLRQSRYTQFQSQIETRGGVPIPVEITLYYMEGDADAPARVIAFLTDISRRKETEQTLVQAKEAAEKANLAKTAFVANMSHEIRTPMNAILGMV
protein production: failed

NGKLFLVGTPIGNLKDITLRALETLQNCDVIAAEDTRQSLKLLNHFDIKKPLISYHKFNENNRSSELMDMVREGKKVALVTDAGMPGISDPGSVIVEKFIENNLEFEVIPG
protein production: not failed

KKYVDNLKETISRVEVSRDNFLTILNSLSEPIFILDREGKITFLNEIARELVQGRINPEGRPYYEIFEDYYINEMVEETIKSEEPQEGTLVTYVGNEKKYFHVKVIPVELKSGDKIFVILFHDVTKERKLDEMRREFIATVSHEL
protein production: failed
